Source: publication PMC4357505

Experiments:
[1] = biological target: β-arrestin1 (UniProt P49407); test: GST pull-down from cell lysate; settings: reference: YFP-GCN2 wild type; sites T899
[2] = biological target: β-arrestin2 (UniProt P32121); test: GST pull-down from cell lysate; settings: reference: YFP-GCN2 wild type; sites T899

Question: For “GCN2 1-1649 (from UniProt Q9P2K8) YFP-GCN2 T899A”, which “binding against the reference” value [1] is on record?
Answer: Its value is “stronger”.

Question: And the “binding against the reference” value [2]?
Answer: Its value is “stronger”.
